Values of other authors, collected in publication PMC4465285.

Assays:
[1] = molecular target: F-actin (Oryctolagus cuniculus) (UniProt P68135)
[2] = molecular target: F-actin (Saccharomyces cerevisiae) (UniProt P60010); test: fluorescence titration and cosedimentation

Substance | Kd [1] | Kd [2]
Drebrin 1-300 (from UniProt Q16643) | 200 nM | –
Cofilin-1 (from UniProt P23528) | – | 16 nM
